Reference: patent US20230012273A1 (Boehringer Ingelheim, published 2023)
Changes are numbered by the printed parent chain. One block for each binder: values may come before it.

Legend:
[1] = molecular target: T1, cynoSIRPα (XP_015313155), Extracellular Domain + His-Tag (cynomolgus monkey); test: SPR, antibody captured on Protein A/G, ECD-His analyte, steady-state fit
T1 construct: also called CySIRPα XP_015313155; not shown: His-Tag
T1 chain: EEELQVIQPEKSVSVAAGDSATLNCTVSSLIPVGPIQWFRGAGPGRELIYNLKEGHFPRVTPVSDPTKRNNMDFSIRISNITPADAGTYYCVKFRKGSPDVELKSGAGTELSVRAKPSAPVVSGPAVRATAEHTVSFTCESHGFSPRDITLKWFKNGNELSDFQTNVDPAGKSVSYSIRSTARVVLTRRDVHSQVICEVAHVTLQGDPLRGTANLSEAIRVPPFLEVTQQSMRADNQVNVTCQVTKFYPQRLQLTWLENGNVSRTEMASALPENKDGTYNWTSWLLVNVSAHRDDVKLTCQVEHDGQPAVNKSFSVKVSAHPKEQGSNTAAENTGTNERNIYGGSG
Experimental: (§1) The binding kinetics of anti-SIRPα antibodies to various SIRPα analytes are determined by surface plasmon resonance (SPR) using a Biacore 8K+(Cytiva). 1×HBS-EP+(Cytiva) is used as running buffer and for all the dilutions unless stated otherwise. The Series S CM5 sensorchip is activated with a 1:1 mixture of 0.1 M NHS (N-hydroxysuccinimide) and 0.4 M EDC (1-Ethyl-3-(3-dimethylaminopropyl) carbodiimide hydrochloride) for 420 seconds at a flow rate of 10 μl/min and immobilized with Protein A/G (Thermo Scientific, 10 μg/ml in 10 mM acetate pH 4.5) for 420 seconds at a flowrate of 10 μl/min resulting in approximately 3000 RU of Protein A/G on the surface. The sensorchip is then deactivated with 1 M ethanolamine HCl pH 8.5 for 420 seconds at a flowrate of 10 μl/min.
(§2) Antibodies (approximately 1 ug/ml) are captured on the Protein A/G surface for 60 seconds at a flowrate of 10 μl/min resulting in capture levels of approximately 240 RU. Dilutions of each SIRP protein (Extracellular Domain+His-Tag, with the concentrations as indicated) are injected as analytes over the captured antibody for 300 seconds of association at a flowrate of 30 μl/min, followed by a dissociation for 600 seconds.
(§3) The above procedures are used to measure binding properties of antibodies of the present disclosure. For each analyte used, the highest concentration was as indicated in Example 3 (see Table 36).

[2] = molecular target: T2, cynoSIRPα (EGM_02252), Extracellular Domain + His-Tag (cynomolgus monkey); test: as above
T2 construct: also called CySIRPα EGM_02252; not shown: His-Tag
T2 chain: T1 chain with D19E, V27A, S28T, A42V, N51H, L52Q, V227F, T245M
Experimental: as §1, §2, §3

[3] = molecular target: T3, cynoSIRPα (NP_001271679), Extracellular Domain + His-Tag (cynomolgus monkey); test: SPR, antibody captured on Protein A/G, ECD-His analyte, 1:1 fit
T3 construct: also called CySIRPα NP_001271679; not shown: His-Tag
T3 chain: T1 chain with P62A, F163V, V185L
Procedure, shortened: (§4)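 Analyte was His-tagged SIRPα extracellular domain in dilution series, associating 300 s and dissociating 600 s at 30 μl/min. Ligand was antibody captured (~240 RU) on immobilized Protein A/G (~3000 RU). Running buffer HBS-EP+.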

[4] = molecular target: T4, Human SIRPαV2 (CAA71403.1), Extracellular Domain + His-Tag (human, UniProt P78324 31-373); test: as above
T4 construct: also called huSIRPαV2; hSIRPαV2; not shown: His-Tag
Procedure, shortened: as §4

[5] = molecular target: T5, Human SIRPαV1 (NP_542970.1), Extracellular Domain + His-Tag (human, UniProt P78324 31-373); test: as above
T5 construct: also called huSIRPαV1; hSIRPαV1; not shown: His-Tag
Procedure, shortened: as §4

[6] = molecular target: T1, cynoSIRPα (XP_015313155), Extracellular …; test: as above
Procedure, shortened: as §4

[7] = molecular target: T2, cynoSIRPα (EGM_02252), Extracellular …; test: SPR, antibody captured on Protein A/G, ECD-His analyte
Procedure, shortened: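 Anti-SIRPα antibodies (~1 ug/ml) were captured on a Protein A/G CM5 surface to ~240 RU in HBS-EP+ running buffer (Biacore 8K+). His-tagged ECD analyte dilutions were injected with 300 s association at 30 μl/min and 600 s dissociation.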

[8] = molecular target: T6, human SIRPγ extracellular domain + His-tag (NP_061026.2) (human, UniProt Q9P1W8 29-360); test: SPR, Ab captured, ECD-His analyte
T6 construct: also called hSIRPγ; HuSIRPγ
Experimental: (§5) The binding affinity of anti-SIRPα antibodies to the various SIRPα analytes is determined by surface plasmon resonance (SPR) using a ProteOn XPR36 (Bio-Rad). The running buffer for this experiment and all dilutions (except where stated) are done in 1×HBS-EP+. […] The sensorchip is deactivated with 1M ethanolamine HCl for 420 sec at a flowrate of 10 μl/min.
(§6) The analyte is injected over the captured antibody for 300 sec at a flowrate of 30 μl/min. The dissociation is done for 600 sec. Two-fold serial dilutions of each SIRP protein (Extracellular Domain+His-Tag) are injected as analyte with the highest concentrations indicated in table 36 below.

[9] = molecular target: T7, human SIRPαV1 extracellular domain + His-tag (NP_542970.1) (human, UniProt P78324 31-373); test: SPR, Ab captured, ECD-His analyte
T7 construct: also called hSIRPαV1; HuSIRPαV1
Experimental: as §5, §6

[10] = molecular target: T8, human SIRPβ1 extracellular domain + His-tag (NP_006056.2) (human, UniProt O00241 30-371); test: SPR, Ab captured, ECD-His analyte
T8 construct: also called hSIRPβ1; HuSIRPβ1
Experimental: as §5, §6

[11] = molecular target: T9, human SIRPβL/SIRPβ1v3 extracellular domain + His-tag (NP_001129316.1) (human, UniProt Q5TFQ8 30-371); test: SPR, Ab captured, ECD-His analyte
T9 construct: also called hSIRPβ1v3; HuSIRPβ1v3
Experimental: as §5, §6

[12] = molecular target: T10, human SIRPαV2 extracellular domain + His-tag (CAA71403.1) (human, UniProt P78324 31-373); test: SPR, Ab captured, ECD-His analyte
T10 construct: also called hSIRPαV2; HuSIRPαV2
Experimental: as §5, §6

T4 sequence (P78324 other isoform, or with tags, fused parts or gaps): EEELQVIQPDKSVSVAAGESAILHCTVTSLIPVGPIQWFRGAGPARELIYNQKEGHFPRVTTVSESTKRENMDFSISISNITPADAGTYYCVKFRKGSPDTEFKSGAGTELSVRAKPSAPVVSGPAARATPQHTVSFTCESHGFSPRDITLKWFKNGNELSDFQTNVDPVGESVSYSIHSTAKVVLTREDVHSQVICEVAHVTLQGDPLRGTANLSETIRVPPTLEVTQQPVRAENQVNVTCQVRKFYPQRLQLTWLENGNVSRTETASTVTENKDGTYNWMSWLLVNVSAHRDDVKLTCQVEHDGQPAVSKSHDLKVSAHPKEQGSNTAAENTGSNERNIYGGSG
T6 sequence (Q9P1W8 29-360): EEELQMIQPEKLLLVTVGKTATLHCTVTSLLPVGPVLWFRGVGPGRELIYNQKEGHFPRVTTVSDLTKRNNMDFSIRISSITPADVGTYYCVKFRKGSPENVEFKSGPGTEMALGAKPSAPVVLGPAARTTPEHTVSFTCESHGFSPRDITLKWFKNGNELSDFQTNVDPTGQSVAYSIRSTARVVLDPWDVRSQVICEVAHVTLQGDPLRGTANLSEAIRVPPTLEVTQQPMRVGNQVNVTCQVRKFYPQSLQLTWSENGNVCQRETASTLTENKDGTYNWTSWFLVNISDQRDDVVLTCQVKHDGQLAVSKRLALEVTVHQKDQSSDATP
T5 sequence (P78324 other isoform, or with tags, fused parts or gaps): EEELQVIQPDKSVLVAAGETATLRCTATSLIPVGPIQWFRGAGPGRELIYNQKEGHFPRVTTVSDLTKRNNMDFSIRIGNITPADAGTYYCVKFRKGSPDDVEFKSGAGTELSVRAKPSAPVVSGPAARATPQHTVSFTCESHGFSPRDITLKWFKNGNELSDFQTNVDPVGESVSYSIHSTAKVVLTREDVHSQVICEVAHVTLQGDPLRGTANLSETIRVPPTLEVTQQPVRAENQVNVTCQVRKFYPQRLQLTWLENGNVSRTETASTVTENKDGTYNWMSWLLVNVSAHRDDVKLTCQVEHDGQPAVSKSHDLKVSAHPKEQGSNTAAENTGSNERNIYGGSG
T9 sequence (Q5TFQ8 other isoform, or with tags, fused parts or gaps): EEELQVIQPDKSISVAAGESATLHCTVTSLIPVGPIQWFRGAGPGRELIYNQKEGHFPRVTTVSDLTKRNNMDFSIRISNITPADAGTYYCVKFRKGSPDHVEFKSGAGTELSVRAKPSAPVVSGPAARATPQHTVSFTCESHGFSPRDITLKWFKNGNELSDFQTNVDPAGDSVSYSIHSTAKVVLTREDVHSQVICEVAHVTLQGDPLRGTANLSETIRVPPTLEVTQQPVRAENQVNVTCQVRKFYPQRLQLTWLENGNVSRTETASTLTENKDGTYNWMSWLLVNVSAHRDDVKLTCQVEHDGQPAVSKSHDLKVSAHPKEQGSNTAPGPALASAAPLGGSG
T8 sequence (O00241 other isoform, or with tags, fused parts or gaps): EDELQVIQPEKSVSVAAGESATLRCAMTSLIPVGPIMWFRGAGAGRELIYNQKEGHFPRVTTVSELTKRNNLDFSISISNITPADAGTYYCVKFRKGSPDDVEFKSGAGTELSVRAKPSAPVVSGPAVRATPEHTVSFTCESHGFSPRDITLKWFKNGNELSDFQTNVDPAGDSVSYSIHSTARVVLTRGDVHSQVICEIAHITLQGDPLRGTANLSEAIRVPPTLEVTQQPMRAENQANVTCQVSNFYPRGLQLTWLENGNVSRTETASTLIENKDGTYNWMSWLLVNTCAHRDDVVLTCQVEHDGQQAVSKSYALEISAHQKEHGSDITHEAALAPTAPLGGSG

Kd [1]: 165 nM
Kd [2]: 258 nM
Kd [3]: 158 nM
koff [3]: 0.138 s⁻¹
kon [3]: 873000 M⁻¹ s⁻¹
B1: Antibody A (antibody, human IgG1, kappa, L234A L235A)
heavy: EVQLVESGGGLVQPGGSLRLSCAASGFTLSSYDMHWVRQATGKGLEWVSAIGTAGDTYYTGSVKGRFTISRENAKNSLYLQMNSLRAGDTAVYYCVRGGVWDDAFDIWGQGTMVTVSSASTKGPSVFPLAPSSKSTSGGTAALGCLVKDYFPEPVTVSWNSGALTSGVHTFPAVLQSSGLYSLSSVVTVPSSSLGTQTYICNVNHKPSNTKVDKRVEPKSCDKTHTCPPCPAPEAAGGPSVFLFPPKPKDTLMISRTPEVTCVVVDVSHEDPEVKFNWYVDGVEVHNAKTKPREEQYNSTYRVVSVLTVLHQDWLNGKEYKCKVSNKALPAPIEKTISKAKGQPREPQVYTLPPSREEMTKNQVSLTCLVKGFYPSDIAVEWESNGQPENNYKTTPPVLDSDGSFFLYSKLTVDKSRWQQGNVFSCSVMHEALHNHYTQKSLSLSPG
light: DIQMTQSPSSLSASVGDRVTITCRASQDINNYLAWFQQKPGKAPKSLIYTASSLHSGVPSKFSGSGSGTDFTLTISSLQPEDFATYYCQQYVSYPYTFGQGTKLEIKRTVAAPSVFIFPPSDEQLKSGTASVVCLLNNFYPREAKVQWKVDNALQSGNSQESVTEQDSKDSTYSLSSTLTLSKADYEKHKVYACEVTHQGLSSPVTKSFNRGEC

Kd [4]: 1.11 nM
koff [4]: 0.000627 s⁻¹
kon [4]: 563000 M⁻¹ s⁻¹
Kd [5]: 3.42 nM
koff [5]: 0.00164 s⁻¹
kon [5]: 480000 M⁻¹ s⁻¹
Kd [6]: 104 nM
koff [6]: 0.0261 s⁻¹
kon [6]: 251000 M⁻¹ s⁻¹
Kd [3]: 111 nM
koff [3]: 0.0278 s⁻¹
kon [3]: 251000 M⁻¹ s⁻¹
binding result [7]: no binding (tested: 1000 nM)
B2: Antibody E20 (antibody, human IgG1, kappa, L234A L235A, V domains shown)
VH: QVQLQESGPGLVRPSETLSLTCTVSGGSIRNYYWSWIRQPPGKGLEWIGFIYYTGRTFYNPSLKSRVTISLDMSINQFSLKMTSVTAADTAVYYCARVRAYSGIGLDGTDVWGQGTTVTVSS
VL: DIVMTQSPLSLPVTPGEPASISCKSSQSLLYSNAYNYLDWYLQRPGQSPQLLIYLGSNRASGVPDRFSGSGSGTDFTLKISRVEAEDVGVYYCMQALQTPLTFGGGTKVEIKR

binding result [8]: no binding (tested: 1000 nM)
Kd [9]: 1.02 nM
Kd [10]: 1380 nM
Kd [11]: 2.72 nM
Kd [12]: 0.873 nM
B3: Antibody E5 (antibody, human IgG1, kappa, L234A L235A, V domains shown)
VH: B2 VH with T54N, M73K, I75K
VL: B2 VL with A34G, N36A, L55Q, Y91F

binding result [8]: no binding (tested: 1000 nM)
Kd [9]: 1.03 nM
binding result [10]: no binding (tested: 1000 nM)
Kd [11]: 2.72 nM
Kd [12]: 0.875 nM
B4: Antibody E6 (antibody, human IgG1, kappa, L234A L235A, V domains shown)
VH: B2 VH with T54N, M73K, I75K
VL: B2 VL with A34G, N36A

binding result [8]: no binding (tested: 1000 nM)
Kd [9]: 0.912 nM
binding result [10]: no binding (tested: 1000 nM)
Kd [11]: 1.93 nM
Kd [12]: 0.687 nM
B5: Antibody E2 (antibody, human IgG1, kappa, L234A L235A, V domains shown)
VH: B2 VH with T54N
VL: B2 VL with A34G, N36A

binding result [8]: no binding (tested: 1000 nM)
Kd [9]: 1.2 nM
Kd [10]: 874 nM
Kd [11]: 2.21 nM
Kd [12]: 1.18 nM
B6: Antibody E7 (antibody, human IgG1, kappa, L234A L235A, V domains shown)
VH: B2 VH with T54N, M73T, I75K
VL: B2 VL with A34G, N36A, L55Q, Y91F

binding result [8]: no binding (tested: 1000 nM)
Kd [9]: 1.21 nM
Kd [10]: 2420 nM
Kd [11]: 2.58 nM
Kd [12]: 0.542 nM
B7: Antibody E8 (antibody, human IgG1, kappa, L234A L235A, V domains shown)
VH: B2 VH with I48M, Y53D, T54N, I75M
VL: B2 VL with A34G, N36A, L55Q, Y91F

Kd [4]: 1.39 nM
koff [4]: 0.000761 s⁻¹
kon [4]: 549000 M⁻¹ s⁻¹
Kd [5]: 4.46 nM
koff [5]: 0.00212 s⁻¹
kon [5]: 476000 M⁻¹ s⁻¹
Kd [6]: 108 nM
koff [6]: 0.0245 s⁻¹
kon [6]: 228000 M⁻¹ s⁻¹
Kd [3]: 107 nM
koff [3]: 0.0242 s⁻¹
kon [3]: 225000 M⁻¹ s⁻¹
binding result [7]: no binding (tested: 1000 nM)
B8: Antibody E21 (antibody, human IgG1, kappa, L234A L235A, V domains shown)
VH: B2 VH with I75K
VL: B2 VL
